This is an account of results in patent US20250122303A1, “TREATMENT AND PREVENTION OF CANCER USING HER3 ANTIGEN-BINDING MOLECULES” (Hummingbird Bioscience Pte. Ltd., priority 2021, published 2025).

The target in data set [1] is T1, human HER3 (HEK293 HER3 O/E cells) (Homo sapiens, UniProt P21860).
T1 construct: expressed in transfected cells; host or cells: HEK293
Kind of data set: Cell surface antigen-binding by flow cytometry. Here is the method: The cells were washed thrice with FACS buffer (PBS with 5 mM EDTA and 0.5% BSA) and resuspended in FITC-conjugated anti-FC antibody (Invitrogen, USA) for 40 min at 2-8° C. Cells were washed again and resuspended in 200 μL of FACS flow buffer (PBS with 5 mM EDTA) for flow cytometric analysis using MACSQuant 10 (Miltenyi Biotec, Germany). After acquisition, all raw data were analyzed using Flowlogic software. Cells were gated using forward and side scatter profile percentage of positive cells was determined for native and overexpressing cell populations.
The cells were washed with buffer (PBS with 2 mM EDTA and 0.5% BSA) and resuspended in FITC-conjugated anti-FC antibody (Invitrogen, USA) at 10 μg/ml for 20 min at 4° C. Cells were washed again and resuspended in 200 μL of FACS flow buffer (PBS with 5 mM EDTA) for flow cytometric analysis using MACSQuant 10 (Miltenyi Biotec, Germany). Unstained WT and transfected HEK293 cells were included in the analysis as negative controls. After acquisition, all raw data were analyzed using Flowlogic software. Cells were gated using forward and side scatter profile percentage of positive cells was determined for native and overexpressing cell populations.
In general terms: Flow cytometry measures light scatter and fluorescence of single cells or particles in a stream.

Data set [2] has as its target hHER3 (Homo sapiens, UniProt P21860). Kind of data set: BLI binding to HER3 in absence of NRG1 ('closed' conformation). The procedure:
(§1) In further experiments, anti-HER3 antibodies were analysed in order to determine the affinity of binding to human HER3 in the context of a human HER3:human NRG1 complex (that is, HER3 provided in the ligand-bound, ‘open’ conformation), as compared to the affinity of binding to human HER3 in the absence of NRG1 complex (that is, HER3 provided in the unbound, ‘closed’ conformation).
(§2) Binding of anti-HER3 antibodies to human HER3 was evaluated by BLI. Briefly, anti-Human IgG Capture (AHC) sensors (ForteBio) were loaded with anti-HER3 IgG antibodies (25 nM). Kinetic measurements were performed in absence or presence of NRG1. NRG1 was used at 1:1 molar ratio with HER3 wherein the complex was allowed to form at RT for 2 h. His-tagged human HER3 or HER3-NRG1 complexes were loaded to antibody coated AHC sensors at different concentrations for 120 s, followed by a 120 s dissociation time. All measurements were performed at 25° C. with agitation at 1000 rpm. Sensorgrams were referenced for buffer effects and then analyzed using the Octet QK384-software (ForteBio). Kinetic responses were globally fitted using a one-site binding model to obtain values for association (Kon), dissociation (Koff) rate constants and the equilibrium dissociation constant (KD).
A general note: Biolayer interferometry detects binding as a change in optical thickness at a sensor tip.

Data set [3] addresses human HER3:human NRG1 complex (Homo sapiens, UniProt P21860). Kind of data set: BLI binding to HER3-NRG1 complex ('open' conformation). The settings on record: presence of NRG1 (1:1 molar ratio). The procedure:
as §1, §2

The test system of data set [4] is HEK293 HER3, HCC95, N87 and OVCAR8 cells. The data set can be described thus: Antibody internalisation, pHrodo imaging. Type of data set: cell-based, human. The settings on record: 24 hours. The procedure: Briefly, 100,000 HEK293 cells engineered to express HER3, HCC95, N87 or OVCAR8 cells were seeded in wells of 96-well tissue culture plates and cultured overnight at 37° C. in 5% CO2. […] The cells in culture were imaged every 30 min for 24 hours, in 4 different fields of each well. The maximum signal intensity in the FITC channel of each field was quantified at 24 hours.

For data set [5] the following is noted: clinical, literature, cited from earlier work.
For data set [6] the following is noted: cited from earlier work.

Turning to “LJM716: anti-HER3 antibody binding domains II and IV, locks HER3 in inactive conformation (Garner et al.) [reference compound]”, the “extent of binding to human HER3-expressing cells” value in data set [1] (10 μg/ml antibody) and in data set [1] (20 μg/ml antibody) was “bind to human HER3-expressing cells to a similar extent” throughout. For the same substance, the results for the “affinity of binding to human HER3” value in data set [2] and in data set [3] were “subpicomolar affinity” and “dramatically reduced”, respectively. Moreover, the internalization entry in data set [4] (HEK293 cells overexpressing HER3, 120 nM) is listed as “significant internalization”; in data set [4] (OvCar8 cells, 120 nM), “Modest to moderate internalization”. In addition, the “Dose where Saturating PK was observed” value in data set [5] is 10 to 40 mg/kg. Further, the “T½ (terminal half life)” value in data set [5] is 9 to 14 days. Moreover, the “Cmax (μg/ml) normalised to per mg/kg dosed” value in data set [5] was 19 to 22 µg/mL. The “gastrointestinal toxicity DLTs” value in data set [6] (human, in vivo) is recorded as “DLTs were reported”. Further, in data set [6] (in the presence of diarrhoea), the “hypokalaemia and hypomagnesemia DLTs” value is on record as “DLTs were reported”.
Consider RG7116, for which, in data set [5], the “Dose where Saturating PK was observed” value was 400 to 2000 mg, the “T½ (terminal half life)” value was 9 to 12 days and the “Cmax (μg/ml) normalised to per mg/kg dosed” value was 24 to 41 µg/mL.
